Reference: patent publication US20210122827A1 (GMAX BIOPHARM, published 2021)

Tests used:
human glucagon receptor [1] = target: T1, human glucagon receptor (human, UniProt P47871 26-477); test: cell-based or functional assay
human glucagon receptor [2] = target: T1, human glucagon receptor; test: FACS on CHO-DHFR-hGCGR cells, antibody at 500, 50 and 5 nM; control is blank CHO-DHFR- cells
Method: PBS containing 10 mM EDTA was used to detach the CHO-DHFR-hGCGR cells and 10⁵ cells/tube was dispensed into 1.5 mL EP tubes, and the supernatant was removed after centrifugation, The negative control sample was resuspended with a loading buffer (PBS, 2% FBS). For the positive control, 200 μL hGCGR antibody solution of specific concentrations was added to the cells and incubated at room temperature; after incubation, the cells were then centrifuged at 1500 rpm to remove the supernatant, washed with a FACS loading buffer and centrifuged again. The cells were resuspended with addition (200 μL/well) of a FITC labeled goat anti-mouse fluorescent antibody at 1:50 dilution (BD Pharmingen) and incubated at room temperature for 30 min in the dark. The supernatant was removed after centrifugation, and cells were washed with FACS loading buffer, centrifuged again, and resuspended with the loading buffer for FACS analysis.

Binder	IC50, antagonism of glucagon-activated hGCGR signaling, direct cAMP assay on CHO-DHFR- cells expressing human GCGR (human glucagon receptor [1])	binding result (human glucagon receptor [2])
hGCGR antibody L7H7 (antibody, V domains shown) VH: QVQLVQSGAEVKKPGASVKVSCKASGYTFTEYTMHWVRQAPGQRLEWIGGINPDNGGPSYSQKFKGRVTITRDTSASTAYMELSSLRSEDTAVYYCAEETHDYDKFAYWGQGTLVTVSS VL: not shown	139 nM	–
mouse ascites antibody L4H4 (antibody, V domains shown, Murine antibody produced from mouse ascites; also called GCGR antibody L4H4) VH: DVQLQESGPGLVKPSQSLSLTCTVTGYSITSDYAWTWIRQFPGNKLEWMGYISFTGTTSYTPSLKSRISITRDTSKNQFFLYLNSVTAEDTATYYCVRSVIFTIDSWGQGTSVTVSS VL: DIQMTQSPASLSASVGETVTITCRASGNIHNYLTWFQQRRGKSPQLLVYNAKALADGVPSRFSGSGSGTEYSLKINSLQPEDFGDYYCLHFWSSPLTFGAGTKLELKR	–	binds
